Data on one protein can be found in paper PMC5471280, “An alternative conformation of ERβ bound to estradiol reveals H12 in a stable antagonist position” (Scientific Reports, 2017).

The data set deals with the molecule itself. As to the kind of experiment: crystal structure; ERβ LBD-E2 complex at 5 mg/mL; sitting drop, 19 °C; 0.1 M Na-citrate pH 5.5, 10% PEG-4000, 10% isopropanol; no coactivator peptide; 2.5 Å; dimer in the asymmetric unit.

B1: human estrogen receptor beta ligand-binding domain (residues 256-501) bound to 17β-estradiol (domain or fragment, UniProt Q92731 256-501, looked up)
chain: RELLLDALSPEQLVLTLLEAEPPHVLISRPSAPFTEASMMMSLTKLADKELVHMISWAKKIPGFVELSLFDQVRLLESCWMEVLMMGLMWRSIDHPGKLIFAPDLVLDRDEGKCVEGILEIFDMLLATTSRFRELKLQHKEYLCVKAMILLNSSMYPLVTATQDADSSRKLAHLLNAVTDALVWVIAKSGISSQQQSMRLANLLMLLSHVRHASNKGMEHLLNMKCKNVVPVYDLLLEMLNAHVLR
notes: The tag was removed with the SUMO protease Ulp1; also called ERβ LBD; hERβ LBD; source: E. coli BL21 (DE3)RIL, purified (NiNTA, Ulp1 cleavage, Superdex-75 SEC)
Take B1: the “stoichiometry N” value came to 2.
